Substitutions are numbered along the chain they refer to.
Key:
[1] = molecular target: T1, Xyr1 (Xylanase regulator 1) (Trichoderma reesei, UniProt G0RLE8); experiment: far-UV circular dichroism, ligand-induced conformational change; type: binding; details: 250 nM protein, buffer A (50 mM Tris, 200 mM NaCl, 50 mM NaH2PO4, 10% glycerol) pH 7.5, 22 °C, sugar 40-1000 nM, no added DNA, proposed allosteric
T1 construct: full coding region, codon-optimised synthetic gene, C-terminal His6 tag (not reported cut), pET28a (pTS1), E. coli BL21(DE3)pLysS; 105 kDa; monomer and homodimer

[2] = molecular target: T1, Xyr1 (Xylanase regulator 1); experiment: as above; type: binding; details: 250 nM protein, buffer A (50 mM Tris, 200 mM NaCl, 50 mM NaH2PO4, 10% glycerol) pH 7.5, 22 °C; sugar 40-1000 nM; no added DNA; proposed allosteric
Description: far-UV circular dichroism, ligand-induced conformational change on Xyr1 (Xylanase regulator 1) | All three carbohydrates cause a change in the Xyr1 secondary structure

[3] = molecular target: Xylanase regulator 1 with the A824V mutation (Xyr1_(A824V)) (Trichoderma reesei) (UniProt G0RLE8); experiment: native gel or EMSA; blue native PAGE (BN-PAGE), 200 nM of each protein, non-denaturing conditions; second dimension SDS-PAGE, identity confirmed by Western blot; also run with target DNA or carbohydrates as controls (Figure S1)
[4] = molecular target: the molecule itself; experiment: as above
[5] = molecular target: T2, Xyr1 (Xylanase regulator 1) (Trichoderma reesei, UniProt G0RLE8 1-920); experiment: CD spectroscopy titration (222 nm); no carbohydrate; Engel fit, n = 2; Buffer A: 50 mM Tris, 200 mM NaCl, 50 mM NaH2PO4, 10% glycerol, pH 7.5, 22 °C; CD: 250 nM protein, DNA 0-900 nM; EMSA: 15 ng probe, 10 min, 0.2 µg/µL p(dIdC) plus unspecific duplex CKT067/CKT068; details: protein: recombinant; tags: C-terminal His6; chain copies: 2; blunt
T2 sequence: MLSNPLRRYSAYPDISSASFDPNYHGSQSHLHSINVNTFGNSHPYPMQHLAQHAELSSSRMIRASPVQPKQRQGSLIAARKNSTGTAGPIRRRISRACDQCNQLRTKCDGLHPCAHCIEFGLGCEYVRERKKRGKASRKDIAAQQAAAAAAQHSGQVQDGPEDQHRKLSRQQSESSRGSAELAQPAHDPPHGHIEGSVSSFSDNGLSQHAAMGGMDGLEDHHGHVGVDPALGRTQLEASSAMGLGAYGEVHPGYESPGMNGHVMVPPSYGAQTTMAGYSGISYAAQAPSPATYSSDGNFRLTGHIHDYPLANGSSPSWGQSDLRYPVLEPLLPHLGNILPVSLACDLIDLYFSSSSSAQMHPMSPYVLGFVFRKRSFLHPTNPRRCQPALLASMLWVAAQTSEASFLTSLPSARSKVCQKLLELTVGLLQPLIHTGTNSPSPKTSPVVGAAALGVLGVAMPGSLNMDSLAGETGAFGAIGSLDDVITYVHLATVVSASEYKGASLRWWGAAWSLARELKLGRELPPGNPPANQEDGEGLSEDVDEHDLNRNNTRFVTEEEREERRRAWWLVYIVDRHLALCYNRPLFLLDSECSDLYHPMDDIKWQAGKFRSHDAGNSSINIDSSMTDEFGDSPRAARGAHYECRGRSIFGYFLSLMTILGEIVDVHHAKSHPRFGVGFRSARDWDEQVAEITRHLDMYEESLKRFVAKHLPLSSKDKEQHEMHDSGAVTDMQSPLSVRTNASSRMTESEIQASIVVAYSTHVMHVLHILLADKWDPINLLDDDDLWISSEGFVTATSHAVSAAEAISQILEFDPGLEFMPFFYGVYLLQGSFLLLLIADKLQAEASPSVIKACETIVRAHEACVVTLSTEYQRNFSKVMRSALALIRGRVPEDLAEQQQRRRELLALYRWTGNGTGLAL

Xyr1A824V = molecular target: T3, Xyr1A824V (Trichoderma reesei, UniProt G0RLE8 1-920, A804V); experiment: as above; details: protein: recombinant; tags: C-terminal His6; chain copies: 2; blunt
T3 sequence: T2 sequence with A804V

## OC1OC[C@@H](O)[C@H](O)[C@H]1O (stereo partly drawn) [D-xylose]
[1]
  loss of α-helix structures (up to): 31%

## O=P(O)(O)OC[C@H]1OC(O)[C@H](O)[C@@H](O)[C@@H]1O (stereo partly drawn) [D-glucose-6-phosphate]
[2]
  loss of α-helix structures: 21%

## Xylanase regulator 1 with the A824V mutation (Xyr1_(A824V)) (from UniProt G0RLE8 1-920)
[3]
  stoichiometry N: 2

## OC[C@H]1O[C@@H](O[C@H]2C(O)O[C@H](CO)[C@@H](O)[C@@H]2O)[C@H](O)[C@@H](O)[C@@H]1O (stereo partly shown) [sophorose]
[1]; spectra not shown, stated highly similar to D-xylose
  loss of α-helix structures (up to): 31%

B1: Xylanase regulator 1 (Xyr1), wild type (natural protein)
chain: T2 sequence
[4]
  stoichiometry N: 2

B2: xyn1 URR fragment (-430 to -396), Pxyn1f/Pxyn1r (dsDNA)
DNA 1: TTGGCAGGCTAAATGCGACATCTTAGCCGGATGCA
DNA 2: TGCATCCGGCTAAGATGTCGCATTTAGCCTGCCAA
[5]
  Kd: 128 nM
Xyr1A824V
  Kd: 523 nM
